This is an account of results in patent US20240141039A1 (AGENUS, published 2024).

One may read the EC50 as the concentration giving half of the maximal effect. As usually defined, the Kd is the constant that tells how readily two partners part at equilibrium. The koff is the rate constant with which the complex falls apart. The term kon denotes the second-order rate constant of association.

Assay [1] addresses T1, wild type full-length cynomolgus monkey CD96 isoform 2 expressed on CHO cells (cynomolgus monkey, UniProt A0A2K5TWV6 22-569).
T1 construct: whole, on cells; also called cynomolgus CD96-CHO cells; cynomolgus CD96-CHO (isoform 2)
T1 sequence: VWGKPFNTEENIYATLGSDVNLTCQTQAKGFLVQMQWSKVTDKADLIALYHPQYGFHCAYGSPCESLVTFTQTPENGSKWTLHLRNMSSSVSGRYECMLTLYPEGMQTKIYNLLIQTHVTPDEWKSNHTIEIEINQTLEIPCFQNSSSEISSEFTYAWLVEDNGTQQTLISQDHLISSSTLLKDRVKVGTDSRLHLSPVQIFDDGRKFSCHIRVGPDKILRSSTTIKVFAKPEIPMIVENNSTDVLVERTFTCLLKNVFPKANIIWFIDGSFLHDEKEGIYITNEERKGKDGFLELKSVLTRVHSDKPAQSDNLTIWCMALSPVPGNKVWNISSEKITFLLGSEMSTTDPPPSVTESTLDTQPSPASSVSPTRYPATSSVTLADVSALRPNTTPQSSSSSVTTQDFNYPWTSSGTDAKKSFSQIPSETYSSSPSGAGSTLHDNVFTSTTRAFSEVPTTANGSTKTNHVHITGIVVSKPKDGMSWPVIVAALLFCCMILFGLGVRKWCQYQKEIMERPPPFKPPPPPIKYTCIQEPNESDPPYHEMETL
The experiment in a line: flow cytometry, cynomolgus CD96 (isoform 2) CHO cells, 1 experiment.

In assay [2] the target is T2, wild type full-length human TIGIT expressed on cells (human, UniProt Q495A1 22-244).
T2 construct: whole, on cells; also called human TIGIT-CHO; human TIGIT CHO cells
T2 sequence (looked up): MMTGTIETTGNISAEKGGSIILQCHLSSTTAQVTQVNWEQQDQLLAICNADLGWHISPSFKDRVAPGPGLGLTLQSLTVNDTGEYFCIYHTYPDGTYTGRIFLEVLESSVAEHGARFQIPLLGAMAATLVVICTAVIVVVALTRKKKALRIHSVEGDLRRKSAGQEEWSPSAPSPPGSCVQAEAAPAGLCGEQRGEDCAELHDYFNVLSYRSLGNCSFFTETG
The experiment in a line: flow cytometry, human TIGIT CHO cells, geomean of 2 experiments. As to the method: The ability of anti-TIGIT antibodies to bind to wild type human TIGIT expressed on the surface of CHO cells was assessed. Briefly, CHO cells were transfected with a vector encoding wild type human TIGIT (human TIGIT-CHO), and clones stably expressing TIGIT were selected.
For the antibody binding assay, a frozen aliquot of human TIGIT-CHO cells was thawed at 37° C. and then transferred to a tube containing DPBS supplemented with 0.5% Bovine Serum Albumin and 0.05% Sodium Azide (FACS Buffer). Cells were centrifuged at 300 g for five minutes. The supernatant was discarded, and cells resuspended in FACS buffer were seeded in a 96-well U-bottom tissue culture plate at a density of […] cells per well in 50 μL. In a separate microplate, a 2× concentrated intermediate stock of each antibody was prepared. Antibodies were serially diluted 1-to-4 in FACS buffer. A total of 11 working dilutions ranging from 60 μg/mL to 0.000057 μg/mL were prepared. […] After a 30-minute incubation on ice, the cells were washed twice with cold FACS Buffer, and the cells were analyzed by flow cytometry (BD LSR Fortessa Flow Cytometer). The data were analyzed using the FlowJo software by sequentially gating the FSC-A vs. SSC-A, and SSC-H vs. SSC-A. Mean fluorescence intensity (MFI) values for PE were calculated, and the data were plotted by GraphPad Prism software.
(A flow cytometer gives signals particle by particle.)

For assay [3], the target named is T3, full-length ECD of human TIGIT (His-tagged) (human).
T3 construct: also called His-tagged human TIGIT; human TIGIT extracellular domain
T3 chain: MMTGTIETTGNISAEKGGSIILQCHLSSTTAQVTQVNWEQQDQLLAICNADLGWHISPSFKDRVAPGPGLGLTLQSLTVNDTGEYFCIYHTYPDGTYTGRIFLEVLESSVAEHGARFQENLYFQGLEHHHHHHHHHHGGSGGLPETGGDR
Put plainly: SPR Biacore T200, Protein A capture, 1:1 model, experiment #2. The method, then: (§1) Briefly, surface plasmon resonance experiments were performed using a Biacore T200 instrument, and the association rate (kₐ), dissociation rate (kd), and dissociation constant (KD) were calculated from each experiment using a 1:1 binding model with Biacore T200 Evaluation Software.
(§2) Antibodies were captured using a 30-sec injection at a flow rate of 10 μl/min to reach about 500 resonance units (RUs). […] The sensor chip was regenerated between cycles with two 30-sec injections of 10 mM glycine, pH 1.5. Sensorgrams were evaluated and fit to a simple Langmuir 1:1 interaction model using the global data analysis option of BIAevaluation 3.0 software. Data quality was verified by visually inspecting deviations and curve fitting, and by evaluating the parameters of Rₘₐₓ, Chi2, and Tc.
On the technique in general: Surface plasmon resonance follows binding to a sensor surface in real time, without labels.

The target of assay [4] is T4, full-length ECD of cynomolgus monkey TIGIT (His-tagged) (cynomolgus monkey).
T4 construct: also called His-tagged cynomolgus monkey TIGIT; cyno TIGIT extracellular domain
The assay is described as above. The method, then:
as §1, §2

For assay [5], the target named is T5, full-length human FcγRIIIa variant V/V expressed on CHO cells (human, UniProt P08637 17-254).
T5 construct: whole, on cells; also called human FcγRIIIa-CHO (variant V/V); human FcγRIIIa (V/V) CHO cells
T5 sequence (P08637 other isoform, or with tags, fused parts or gaps mutant limits assumed): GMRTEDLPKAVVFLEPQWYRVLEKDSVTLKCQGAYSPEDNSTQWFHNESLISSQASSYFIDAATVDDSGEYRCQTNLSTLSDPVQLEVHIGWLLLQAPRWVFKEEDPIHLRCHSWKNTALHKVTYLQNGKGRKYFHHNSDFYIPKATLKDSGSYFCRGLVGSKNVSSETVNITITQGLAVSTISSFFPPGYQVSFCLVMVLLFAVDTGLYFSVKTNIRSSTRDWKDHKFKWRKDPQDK
Put plainly: flow cytometry, human FcγRIIIa (V/V) CHO cells, representative experiment. As to the method: For the antibody binding assay, a frozen aliquot of human FcγRIIIa-CHO cells (variant V/V or variant F/F) was thawed at 37° C. and then transferred to a tube containing DPBS supplemented with 0.5% Bovine Serum Albumin and 0.05% Sodium Azide (FACS Buffer). Cells were centrifuged at 300 g for five minutes. The supernatant was discarded, and cells resuspended in FACS buffer were seeded in a 96-well U-bottom tissue culture plate at a density of 2×10⁵ cells per well in 50 μL. In a separate microplate, a 2× concentrated intermediate stock of each antibody was prepared. Antibodies were serially diluted 1-to-4 in FACS buffer. A total of 11 working dilutions ranging from 60 μg/mL to 0.000057 μg/mL were prepared. Fifty microlitres of each dilution were then transferred to the microplate containing human FcγRIIIa-CHO (variant V/V or variant F/F) cells. The cells were then incubated for 45 minutes at 4° C. […] After a 30-minute incubation on ice, the cells were washed twice with cold FACS Buffer, and the cells were analyzed by flow cytometry (BD LSR Fortessa Flow Cytometer). The data were analyzed using the FlowJo software by sequentially gating the FSC-A vs. SSC-A, and SSC-H vs. SSC-A. Mean fluorescence intensity (MFI) values for PE were calculated, and the data were plotted by GraphPad Prism software.

B1: anti-TIGIT×CD96 multispecific molecule BA123 (bispecific antibody, human IgG1, kappa, lambda)
heavy 1: QVQLVQSGAEVKKPGASVKVSCKASGYTFTSYGISWVRQAPGQGLEWMGWISAYNANTNYAQKLQGRVTMTTDTSTSTAYMELRSLRSDDTAVYYCARSAGVLGGMDVWGRGTLVTVSSASTKGPSVFPLAPSSKSTSGGTAALGCLVKDYFPEPVTVSWNSGALTSGVHTFPAVLQSSGLYSLSSVVTVPSSSLGTQTYICNVNHKPSNTKVDKRVEPKSCDKTHTCPPCPAPELLGGPDVFLFPPKPKDTLMISRTPEVTCVVVDVSHEDPEVKFNWYVDGVEVHNAKTKPREEQYNSTYRVVSVLTVLHQDWLNGKEYKCKVSNKALPAPIEKTISKAKGQPREPQVYTLPPSREEMTKNQVSLSCAVKGFYPSDIAVEWESNGQPENNYKTTPPVLDSDGSFFLVSKLTVDKSRWQQGNVFSCSVMHEALHNHYTQKSLSLSPG
light 1: not shown
heavy 2: EVQLVQSGAEVKKPGSSVKVSCKASGYTFASYGISWVRQAPGQGLEWMGGITPFFNRVDVAEKFQGRVTITADKSTSTAYIELSSLRSEDTAVYYCARDLRRGGVGDAFDIWGRGTLVTVSSASTKGPSVFPLAPSSKSTSGGTAALGCLVKDYFPEPVTVSWNSGALTSGVHTFPAVLQSSGLYSLSSVVTVPSSSLGTQTYICNVNHKPSNTKVDKRVEPKSCDKTHTCPPCPAPELLGGPDVFLFPPKPKDTLMISRTPEVTCVVVDVSHEDPEVKFNWYVDGVEVHNAKTKPREEQYNSTYRVVSVLTVLHQDWLNGKEYKCKVSNKALPLPEEKTISKAKGQPREPQVYTLPPSREEMTKNQVSLWCLVKGFYPSDIAVEWESNGQPENNYKTTPPVLDSDGSFFLYSKLTVDKSRWQQGNVFSCSVMHEALHNHYTQKSLSLSPG
light 2: QSALTQPRSVSGSPGQSVTISCTGTSPDVGSHAYRSWYQQHPGKAPKLMIYEVSYRPSGVSNRFSGSKSGNTASLTISGLQAEDEADYYCSSYPPSSATVFGAGTKLTVLGQPKAAPSVTLFPPSSEELQANKATLVCLISDFYPGAVTVAWKADSSPVKAGVETTTPSKQSNNKYAASSYLSLTPEQWKSHRSYSCQVTHEGSTVEKTVAPTEC
notes: copies: 1 + 1 + 1 + 1
Regarding B1, the EC50 in assay [1] was found to be 1.04 µg/mL.

B2: anti-TIGIT monospecific antibody BA148 (antibody, human IgG1, lambda)
heavy: EVQLVQSGAEVKKPGSSVKVSCKASGYTFASYGISWVRQAPGQGLEWMGGITPFFNRVDVAEKFQGRVTITADKSTSTAYIELSSLRSEDTAVYYCARDLRRGGVGDAFDIWGRGTLVTVSSASTKGPSVFPLAPSSKSTSGGTAALGCLVKDYFPEPVTVSWNSGALTSGVHTFPAVLQSSGLYSLSSVVTVPSSSLGTQTYICNVNHKPSNTKVDKRVEPKSCDKTHTCPPCPAPELLGGPDVFLFPPKPKDTLMISRTPEVTCVVVDVSHEDPEVKFNWYVDGVEVHNAKTKPREEQYNSTYRVVSVLTVLHQDWLNGKEYKCKVSNKALPLPEEKTISKAKGQPREPQVYTLPPSREEMTKNQVSLTCLVKGFYPSDIAVEWESNGQPENNYKTTPPVLDSDGSFFLYSKLTVDKSRWQQGNVFSCSVMHEALHNHYTQKSLSLSPGK
light: B1 light 2
notes: IgG1; also called anti-TIGIT IgG1 antibody BA148
Regarding B2, it took 0.0082 µg/mL to reach a half-maximal effect in assay [2] (EC50). In assay [3], this molecule yielded a dissociation constant (Kd) of 0.548 nM, a koff of 0.000422 s⁻¹ and a kon of 770000 M⁻¹ s⁻¹. Also, in assay [4], binding was characterised by a dissociation constant (Kd) of 4.06 nM, the dissociation rate constant (koff) is 0.00126 s⁻¹ and the on-rate (kon) was determined as 310000 M⁻¹ s⁻¹. The “Area under the curve (AUC)” value in assay [5] turned out to be 50100.
